Data taken from patent US20140065111A1 (published 2014).

Biological target: T1, human gp100 peptide on H-2Db (mouse)
T1 peptide: KVPRNQDWL
Assay: multimer staining
Method: Monomers of H2D^b mouse MHC class I molecules loaded with the human gp100 peptide KVPRNQDWL were ordered from the NIH tetramer facility. Monomers were conjugated to APC-Streptavidin (eBiosience) by incubation on ice. Cells were stained with tetramers for 1H in concentrations of 0.178 μg tetramers for 1 million cells in total volume of 50 μl of PBS supplemented with 0.5% BSA and 0.1% of Na-Azide.
After testing the expression and presence of the CD3-TCR complex on the cell surface it is essential to determine the capability of the TCR to bind the MHC-class I molecule presenting the gp100 peptide. In order to test binding capability of the TCR a tetramer staining assay was performed. The tetramer staining assay is designed for testing TCR-MHC binding and was previously described (Ogg and McMichael, 1998). Briefly, the tetramer is a complex of four monomers. Each monomer formed from a mouse MHC-class I molecule, H-2D^b, presenting the human gp100 peptide KVPRNQDWL. The H-2D^b molecule is conjugated to a biotin molecule. The tetramers are assembled by linking four biotin conjugated monomers to one molecule of APC-conjugated Streptavidin. The 293TREx-CD3-Pmel-TCR cells were stained with the tetramers and analyzed by FACS.

- binding result: recognises
B1: Pmel-TCR (TCR, V domains shown)
Valpha: QQKVQQSPESLTVSEGAMASLNCTFSDRSSDNFRWYRQHSGKGLEVLVSIFSDGEKEEGSFTAHLNRASLHVFLHIREPQPSDSALYLCAVNTGNYKYVFGAGTRLKVIA
Vbeta: EAGVTQSPRYAVLQEGQAVSFWCDPISGHDTLYWYQQPRDQGPQLLVYFRDEAVIDNSQLPSDRFSAVRPKGTNSTLKIQSAKQGDTATYLCASSFHRDYNSPLYFAAGTRLTVT
